Data published in publication PMC6784197.
Positions count from the first letter of the chain named. Each block holds one binder with its values, some of them ahead of it.

Experiments:
[1] = target: T1, hCD138 (human Syndecan-1), extracellular domain (human) (UniProt P18827); assay: SPR; bivalent (avidity) set-up: CD138 amine-coupled to CM5 chip (240 RU), IgG as analyte 33-300 nM; Biacore T200, HBS-P+ pH 7.4, 25 °C; 1:1 Langmuir model
T1 sequence: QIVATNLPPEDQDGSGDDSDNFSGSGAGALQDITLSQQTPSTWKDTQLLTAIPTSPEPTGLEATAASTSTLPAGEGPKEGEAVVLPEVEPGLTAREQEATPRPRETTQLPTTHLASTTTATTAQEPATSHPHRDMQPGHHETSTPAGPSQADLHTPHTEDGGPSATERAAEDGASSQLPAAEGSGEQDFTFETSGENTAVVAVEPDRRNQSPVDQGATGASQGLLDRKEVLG

[2] = target: <CD138> Ha-La; assay: SPR; monovalent (affinity) set-up: antibody captured via anti-hFc on CM5 chip, hCD138 as analyte 66-600 nM; Biacore T200, HBS-P+ pH 7.4, 25 °C; 1:1 Langmuir model
[3] = target: <CD138> Ha-Lg; assay: as above
[4] = target: <CD138> Ha-Lw; assay: as above
[5] = target: <CD138> Hb-La; assay: as above
[6] = target: <CD138> Hb-Lg; assay: as above
[7] = target: <CD138> Hb-Lw; assay: as above
[8] = target: <CD138> Hw-La; assay: as above
[9] = target: <CD138> Hw-Lw (parent IgG); assay: as above
[10] = target: <CD138> Hg-Lw; assay: SPR; monovalent (affinity): anti-CD138 IgG variants (30 nM) captured via anti-hFc on CM5; hCD138 as analyte, 66-600 nM; HBS-P+ pH 7.4, 25 °C; 1:1 Langmuir model; Biacore T200

- Kd [1]: 2.4 nM
- koff [1]: 0.0005 s⁻¹
- kon [1]: 390000 M⁻¹ s⁻¹
B1: <CD138> Hb-Lg (antibody, V domains shown)
VH: QVQLQQSGSELMMPGASVKISCKATGYTFTGYWIEWVKQRPGHGLEWIGEILPGTGRTIYNEKFKGKATFTADISSNTVQMQLSSLTSEDSAVYYCARRDYYGNFYYAMDYWGQGTSVTVSS
VL: DIQMTQSTSSLSASLGDRVTISCSASQGISNYLNWYQQKPDGTVELLIYYTSSLHSGVPSRFSGSGSGTDYSLTISNLEPEDIGTYYCQQYSKLPRTFGGGTKLEIK

- Kd [1]: 0.4 nM
- koff [1]: 6.4e-05 s⁻¹
- kon [1]: 160000 M⁻¹ s⁻¹
B2: <CD138> Ha-La (antibody, V domains shown)
VH: B1 VH with T30S, G31N, R57S
VL: B1 VL with S30N, S53T

- Kd [1]: 0.28 nM
- koff [1]: 0.00011 s⁻¹
- kon [1]: 350000 M⁻¹ s⁻¹
B3: <CD138> Hb-Lw (antibody, V domains shown)
VH: B1 VH
VL: B1 VL with S30N, S53T, H55Q

- Kd [1]: 0.83 nM
- koff [1]: 0.00029 s⁻¹
- kon [1]: 160000 M⁻¹ s⁻¹
B4: <CD138> Ha-Lg (antibody, V domains shown)
VH: B1 VH with T30S, G31N, R57S
VL: B1 VL

- Kd [1]: 230 nM
- koff [1]: 0.051 s⁻¹
- kon [1]: 210000 M⁻¹ s⁻¹
B5: <CD138> Hg-Lw (antibody, V domains shown)
VH: B1 VH with T55S, R57S, I59N
VL: B1 VL with S30N, S53T, H55Q

- Kd [1]: 0.42 nM
- koff [1]: 7.1e-05 s⁻¹
- kon [1]: 170000 M⁻¹ s⁻¹
B6: <CD138> Ha-Lw (antibody, V domains shown)
VH: B1 VH with T30S, G31N, R57S
VL: B1 VL with S30N, S53T, H55Q

- Kd [1]: 0.31 nM
- koff [1]: 0.00012 s⁻¹
- kon [1]: 400000 M⁻¹ s⁻¹
B7: <CD138> Hb-La (antibody, V domains shown)
VH: B1 VH
VL: B1 VL with S30N, S53T

- Kd [2]: 240 nM
- koff [2]: 0.013 s⁻¹
- kon [2]: 55000 M⁻¹ s⁻¹
- Kd [3]: 380 nM
- koff [3]: 0.045 s⁻¹
- kon [3]: 120000 M⁻¹ s⁻¹
- Kd [4]: 190 nM
- koff [4]: 0.015 s⁻¹
- kon [4]: 76000 M⁻¹ s⁻¹
- Kd [5]: 140 nM
- koff [5]: 0.025 s⁻¹
- kon [5]: 170000 M⁻¹ s⁻¹
- Kd [6]: 610 nM
- koff [6]: 0.079 s⁻¹
- kon [6]: 130000 M⁻¹ s⁻¹
- Kd [7]: 150 nM
- koff [7]: 0.027 s⁻¹
- kon [7]: 180000 M⁻¹ s⁻¹
- Kd [8]: 71 nM
- koff [8]: 0.0061 s⁻¹
- kon [8]: 87000 M⁻¹ s⁻¹
- Kd [9]: 80 nM
- koff [9]: 0.0062 s⁻¹
- kon [9]: 77000 M⁻¹ s⁻¹
B8: hCD138 (human Syndecan-1), extracellular domain (domain or fragment)
chain: T1 sequence

- fold reduction of affinity against the parent Hw-Lw [10]: > 100 fold
B9: hCD138 (human Syndecan-1, R&D Systems 2780-TS) (domain or fragment)
chain: T1 sequence
